Measured values published in WO2018237338A1 (dated 2018).

Key:
[1] = biological target: T1, human alpha-synuclein protein, monomeric (human, UniProt P37840 1-140); assay: SPR (Biacore), full-cycle kinetics: IgG captured on anti-human Fc CM5 chip, alpha-synuclein monomer injected, 1:1 Langmuir fit
[2] = biological target: human alpha-synuclein protein (full-length; monomer/oligomer form not specified at the place) (human, UniProt P37840 1-140); assay: SPR (Biacore T200), protein captured by anti-human-Fc on a CM5 chip, recombinant alpha-synuclein injected (Table 14)
[3] = biological target: T1, human alpha-synuclein protein, monomeric; assay: SPR (Biacore)
[4] = biological target: T1, human alpha-synuclein protein, monomeric; assay: SPR (Biacore), single-cycle kinetics, alpha-synuclein monomer

Binder | Kd [1] | koff [1] | kon [1] | other results
Clone 2F10 (antibody, human IgG1, V domains shown, Biacore: mouse variable regions with human IgG1 and kappa constant regions; A mouse IgG version was also used elsewhere) VH: EVKLQESGPGLVKPSQSLSLTCSVTGYSITSGYYWNWIRQFPGNKLEWLGYISDDGRNNYNPSLKNRISITRDTSKNQLFLKLNSVTTEDTATYYCVRGDYGPWGQGTTVTVSS VL: DVVMTQTPLTLSVTIGQPAFISCKSNQSLLDYDGETYLNWLFLRPGQSPKRLIYLVSKQDSGVPDRFTGIGSGTDFTLKINRVEAEDLGIYYCWQGTHFPQTFGGGTKLELK | 6.7 nM | 0.00067 s⁻¹ | 100000 M⁻¹ s⁻¹ | –
Clone 2D02 (antibody, V domains shown, Biacore: mouse variable regions with human IgG1 and kappa constant regions) VH: EVKLQESGPGLVKPSQSLSLTCSVTGYSITSGYYWNWIRQFPGNKLEWLGFISSDGNSDYNPSLKNRISVTRDTSKNQFFLQLNSVTTEDTATYYCLRGDVDWGQGTTLTVSS VL: not shown | 6.38 nM | 0.0003 s⁻¹ | 47000 M⁻¹ s⁻¹ | –
2F09/35.21.17.2 (bispecific antibody, human IgG1, kappa, Knob:hole:light chain were co-transfected 1:1:2) heavy 1: EVHVKQSGPELVEPGASVKISCKTSGYTFASYAISWVKQRTGQGLEWIGEIYPGSGDTYYDEKFKGKATLTADKSSSTAYMELRSLTSEDSAVYFCASDYDAYWGQGTLVTVSAASTKGPSVFPLAPSSKSTSGGTAALGCLVKDYFPEPVTVSWNSGALTSGVHTFPAVLQSSGLYSLSSVVTVPSSSLGTQTYICNVNHKPSNTKVDKKVEPKSCDKTHTCPPCPAPELLGGPSVFLFPPKPKDTLMISRTPEVTCVVVDVSHEDPEVKFNWYVDGVEVHNAKTKPREEQYNSTYRVVSVLTVLHQDWLNGKEYKCKVSNKALPAPIEKTISKAKGQPREPQVYTLPPSRDELTKNQVSLWCLVKGFYPSDIAVLWESYGTEWASYKTTPPVLDSDGSFFLYSKLTVTKEEWQQGFVFSCSVMHEALHNHYTQKSLSLSPGK heavy 2: not shown light: DIVLTQTPLSLPVSLGDQASISCRSSQSLVHRNGNTYLHWYLQKPGQSPKLLIYRISNRFSGVPDRFSGSGSGTDFTLKISRVEAEDLGVYFCSQSTHVPLTFGAGTKLEIKRTVAAPSVFIFPPSDEQLKSGTASVVCLLNNFYPREAKVQWKVDNALQSGNSQESVTEQDSKDSTYSLSSTLTLSKADYEKHKVYACEVTHQGLSSPVTKSFNRGEC | – | – | – | binding result [2]: binds
Clone 2F09 (antibody, V domains shown, Mouse variable regions with human IgG1 and kappa constant regions) VH: EVHVKQSGPELVEPGASVKISCKTSGYTFASYAISWVKQRTGQGLEWIGEIYPGSGDTYYDEKFKGKATLTADKSSSTAYMELRSLTSEDSAVYFCASDYDAYWGQGTLVTVSA VL: DIVLTQTPLSLPVSLGDQASISCRSSQSLVHRNGNTYLHWYLQKPGQSPKLLIYRISNRFSGVPDRFSGSGSGTDFTLKISRVEAEDLGVYFCSQSTHVPLTFGAGTKLEIK | 1.63 nM | 0.0015 s⁻¹ | 920000 M⁻¹ s⁻¹ | –
Clone 3C02 (antibody, human IgG1, V domains shown, Mouse variable regions with human IgG1 and kappa constant regions) VH: EVKLLESGGGLVQPGGSLKLSCAASGFTFSDYGMHWVRQAPEKGLEWIAYISRGSSAIYYADAVKGRFTISRDNAKNTLFLQMTSLRSEDTAMYYCRSPLRYFDVWGTGTSVTVSS VL: not shown | 29.3 nM | 0.0012 s⁻¹ | 41000 M⁻¹ s⁻¹ | –
1F4/35.21.17.2 (bispecific antibody, human IgG1, kappa) heavy 1: EVQLVESGGGLVQPKGSLKLSCAASGFSFNTYAMNWVRQAPGKGLEWVARIRTKSNNYATYYADSVKDRFTISRDDSESKFHLQMNNLKTEDTAIYYCVRQGIDFYAMDYWGQGTSVTVSSASTKGPSVFPLAPSSKSTSGGTAALGCLVKDYFPEPVTVSWNSGALTSGVHTFPAVLQSSGLYSLSSVVTVPSSSLGTQTYICNVNHKPSNTKVDKKVEPKSCDKTHTCPPCPAPELLGGPSVFLFPPKPKDTLMISRTPEVTCVVVDVSHEDPEVKFNWYVDGVEVHNAKTKPREEQYNSTYRVVSVLTVLHQDWLNGKEYKCKVSNKALPAPIEKTISKAKGQPREPQVYTLPPSRDELTKNQVSLWCLVKGFYPSDIAVLWESYGTEWASYKTTPPVLDSDGSFFLYSKLTVTKEEWQQGFVFSCSVMHEALHNHYTQKSLSLSPGK heavy 2: not shown light: DVLMTQSPLSLSVSLGDQASISCRSSRDIVHSNGNTYLEWYLQKPGQSPKLLIYKVSNRFSGVPDRFSGSGSGTDFTLKISRVEAEDLGVYYCFQGTLIPLTFGAGTKLELKRTVAAPSVFIFPPSDEQLKSGTASVVCLLNNFYPREAKVQWKVDNALQSGNSQESVTEQDSKDSTYSLSSTLTLSKADYEKHKVYACEVTHQGLSSPVTKSFNRGEC | – | – | – | binding result [2]: binds
Clone 1F06 (antibody, V domains shown, also called antibody 1F06) VH: EVKLVESGGGLVKPGGSLKLSCAASGFIFSDYGMHWVRQAPEKGLEWIAFISSGNNTVYYADTVKGRFTISRDSAKKTLFLQMTSLRSEDTAMYYCVRHSNFCDYWGQGTSVTVSS VL: DVQMTQTPLSLPVSLGDQASISCRSSQSIVHSNGNTYLEWYLQKPGQSPKLLIYKVSNRFSGVPDRFSGSGSGTDFTLKISRVEAEDLGVYYCFQGSHVPPTFGAGTKLELK | – | – | – | binding result [3]: binds
Clone 1F06 C99M (antibody, human IgG1, V domains shown, Human IgG1/kappa chimeric format like 1F06; C99 (Kabat, CDR-H3) is replaced by Met; also called 1F06 C99M variant; C99M variant of 1F06) VH: EVKLVESGGGLVKPGGSLKLSCAASGFIFSDYGMHWVRQAPEKGLEWIAFISSGNNTVYYADTVKGRFTISRDSAKKTLFLQMTSLRSEDTAMYYCVRHSNFMDYWGQGTSVTVSS VL: DVQMTQTPLSLPVSLGDQASISCRSSQSIVHSNGNTYLEWYLQKPGQSPKLLIYKVSNRFSGVPDRFSGSGSGTDFTLKISRVEAEDLGVYYCFQGSHVPPTFGAGTKLELK | – | – | – | binding result [4]: binds
